The record followed here is PMC12392933, “The SCARECROW‐LIKE transcription factor from Populus davidiana × P. bolleana simultaneously improved drought tolerance and plant growth through acetylation‐dependent mechanisms”.

The target in data set [1] is T1, PdbSCL1 (Populus davidiana x P. bolleana …, UniProt A0AAJ6V7V0 1-473).
T1 sequence: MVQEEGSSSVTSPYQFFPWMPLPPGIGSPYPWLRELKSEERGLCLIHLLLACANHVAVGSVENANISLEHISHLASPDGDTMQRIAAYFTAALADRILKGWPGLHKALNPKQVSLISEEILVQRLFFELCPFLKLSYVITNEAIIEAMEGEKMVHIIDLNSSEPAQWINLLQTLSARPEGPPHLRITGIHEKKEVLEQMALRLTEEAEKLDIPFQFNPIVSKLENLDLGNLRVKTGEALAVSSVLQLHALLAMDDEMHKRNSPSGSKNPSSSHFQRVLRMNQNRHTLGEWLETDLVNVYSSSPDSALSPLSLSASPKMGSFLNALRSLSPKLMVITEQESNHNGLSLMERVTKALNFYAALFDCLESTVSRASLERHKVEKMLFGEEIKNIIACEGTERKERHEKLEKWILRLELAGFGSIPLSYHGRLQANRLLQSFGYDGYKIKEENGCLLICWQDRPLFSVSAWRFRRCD
Put plainly: competition; EMSA, unlabelled mutant competitor; Chemiluminescent EMSA kit (Beyotime), PAGE; buffer, salt, pH and temperature not stated. Particulars: protein: recombinant; tags: MBP (pMALc5X); label: unlabelled; blunt. A general note: Mobility shift assays separate free from complexed probe on a gel.

Data set [2] has as its target T1, PdbSCL1. Put plainly: EMSA; Chemiluminescent EMSA kit (Beyotime), PAGE; buffer, salt, pH and temperature not stated. Conditions: protein: recombinant; tags: MBP (pMALc5X); label: 3' biotin; blunt.

B1: NFY mutant competitor (CCAAT to TTTTT) (dsDNA)
DNA 1: TTTTTTTTTTTTTTTC
DNA 2: GAAAAAAAAAAAAAAA
For B1, the binding result with PdbSCL1 [1] is “no binding”.

B2: ABRE probe (3x CACGTG) (dsDNA)
DNA 1: CACGTGCACGTGCACGTG
DNA 2: CACGTGCACGTGCACGTG
Consider B2, for which the binding result with PdbSCL1 [2] is reported as “binds”.

B3: NFY probe (3x CCAAT) (dsDNA)
DNA 1: CCAATCCAATCCAATC
DNA 2: GATTGGATTGGATTGG
Regarding B3, the binding result with PdbSCL1 [2] is given as “binds”.

B4: PCF probe (3x TGGGCC) (dsDNA)
DNA 1: TGGGCCTGGGCCTGGGCC
DNA 2: GGCCCAGGCCCAGGCCCA
As to B4, the binding result in the data set with PdbSCL1 [2] is reported as “binds”.
